According to US20220227830A1, “QD DOSING OF GIP RECEPTOR AGONIST PEPTIDE COMPOUNDS AND USES THEREOF” (Takeda Pharmaceutical Company Limited, priority 2020, published 2022):
Starred links: 1 amine or outer side, 2 acyl side, 3 side chain; linkers in the order of their positions; H or OH if unused. Non-standard residues stand in square brackets, D forms with d. Groups on a side chain read outwards from the residue. No end group written: not given here. *: point of attachment. 2OEGgEgE‑C15DA = 2OEGgEgE-C15 diacid linker-lipid on the Lys side chain, O=C(O)CCCCCCCCCCCCCC(=O)N[C@@H](CCC(=O)N[C@@H](CCC(=O)NCCOCCOCC(=O)NCCOCCOCC(=O)*)C(=O)O)C(=O)O; GGEEE‑C15DA = Gly-Gly-Glu-Glu-Glu linker (GGEEE) joined to a C15 diacid lipid (C15DA), on the Lys side chain; 2OEGgE‑C16DA = O=C(O)CCCCCCCCCCCCCCC(=O)N[C@@H](CCC(=O)NCCOCCOCC(=O)NCCOCCOCC(=O)*)C(=O)O; C16 diacid = O=C(O)CCCCCCCCCCCCCCC(=O)*; C15 diacid = O=C(O)CCCCCCCCCCCCCC(=O)*; γGlu = O=C(O)[C@H](CCC(=O)[*:2])N[*:1]; NMeY = CN[C@@H](Cc1ccc(O)cc1)C(=O)O; AEEA = NCCOCCOCC(=O)O; Aib = CC(C)(N)C(=O)O

T1: full-length human GIPR with an N-terminal FLAG tag (human, UniProt P48546 22-466)
T1 sequence (looked up): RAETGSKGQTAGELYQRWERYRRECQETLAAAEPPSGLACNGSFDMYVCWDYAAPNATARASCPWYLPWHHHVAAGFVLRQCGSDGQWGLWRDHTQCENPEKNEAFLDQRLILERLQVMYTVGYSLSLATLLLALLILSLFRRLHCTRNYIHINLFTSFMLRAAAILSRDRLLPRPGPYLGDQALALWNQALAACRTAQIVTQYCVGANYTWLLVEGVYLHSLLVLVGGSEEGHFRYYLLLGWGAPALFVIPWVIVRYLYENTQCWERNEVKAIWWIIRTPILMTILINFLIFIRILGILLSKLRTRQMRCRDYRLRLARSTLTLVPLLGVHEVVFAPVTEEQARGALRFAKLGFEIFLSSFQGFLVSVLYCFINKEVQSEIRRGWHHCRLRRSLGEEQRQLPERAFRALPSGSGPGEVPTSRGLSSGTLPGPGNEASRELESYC

B1: Compound 101 (peptide)
peptide: [NMeY][Aib]EGTFISDYSIALDR[Aib]AQ[Aib]NFVNWLLAQK(2OEGgEgE‑C15DA)PSSGAPPPS-NH2
modifications: N-terminus assumed
SMILES: CC[C@H](C)[C@H](NC(=O)[C@H](CO)NC(=O)[C@H](Cc1ccc(O)cc1)NC(=O)[C@H](CC(=O)O)NC(=O)[C@H](CO)NC(=O)[C@@H](NC(=O)[C@H](Cc1ccccc1)NC(=O)[C@@H](NC(=O)CNC(=O)[C@H](CCC(=O)O)NC(=O)C(C)(C)NC(=O)[C@H](Cc1ccc(O)cc1)NC)[C@@H](C)O)[C@@H](C)CC)C(=O)N[C@@H](C)C(=O)N[C@@H](CC(C)C)C(=O)N[C@@H](CC(=O)O)C(=O)N[C@@H](CCCNC(=N)N)C(=O)NC(C)(C)C(=O)N[C@@H](C)C(=O)N[C@@H](CCC(N)=O)C(=O)NC(C)(C)C(=O)N[C@@H](CC(N)=O)C(=O)N[C@@H](Cc1ccccc1)C(=O)N[C@H](C(=O)N[C@@H](CC(N)=O)C(=O)N[C@@H](Cc1c[nH]c2ccccc12)C(=O)N[C@@H](CC(C)C)C(=O)N[C@@H](CC(C)C)C(=O)N[C@@H](C)C(=O)N[C@@H](CCC(N)=O)C(=O)N[C@@H](CCCCNC(=O)COCCOCCNC(=O)COCCOCCNC(=O)CC[C@H](NC(=O)CC[C@H](NC(=O)CCCCCCCCCCCCCC(=O)O)C(=O)O)C(=O)O)C(=O)N1CCC[C@H]1C(=O)N[C@@H](CO)C(=O)N[C@@H](CO)C(=O)NCC(=O)N[C@@H](C)C(=O)N1CCC[C@H]1C(=O)N1CCC[C@H]1C(=O)N1CCC[C@H]1C(=O)N[C@@H](CO)C(N)=O)C(C)C
B2: Compound 103 (peptide)
peptide: [NMeY][Aib]EGTFISDYSI[Aib]LDR[Aib]AQ[Aib]K(2OEGgEgE‑C15DA)FVNWLLAQSPSSGAPPPS-NH2
modifications: N-terminus assumed
SMILES: CC[C@H](C)[C@H](NC(=O)[C@H](Cc1ccccc1)NC(=O)[C@@H](NC(=O)CNC(=O)[C@H](CCC(=O)O)NC(=O)C(C)(C)NC(=O)[C@H](Cc1ccc(O)cc1)NC)[C@@H](C)O)C(=O)N[C@@H](CO)C(=O)N[C@@H](CC(=O)O)C(=O)N[C@@H](Cc1ccc(O)cc1)C(=O)N[C@@H](CO)C(=O)N[C@H](C(=O)NC(C)(C)C(=O)N[C@@H](CC(C)C)C(=O)N[C@@H](CC(=O)O)C(=O)N[C@@H](CCCNC(=N)N)C(=O)NC(C)(C)C(=O)N[C@@H](C)C(=O)N[C@@H](CCC(N)=O)C(=O)NC(C)(C)C(=O)N[C@@H](CCCCNC(=O)COCCOCCNC(=O)COCCOCCNC(=O)CC[C@H](NC(=O)CC[C@H](NC(=O)CCCCCCCCCCCCCC(=O)O)C(=O)O)C(=O)O)C(=O)N[C@@H](Cc1ccccc1)C(=O)N[C@H](C(=O)N[C@@H](CC(N)=O)C(=O)N[C@@H](Cc1c[nH]c2ccccc12)C(=O)N[C@@H](CC(C)C)C(=O)N[C@@H](CC(C)C)C(=O)N[C@@H](C)C(=O)N[C@@H](CCC(N)=O)C(=O)N[C@@H](CO)C(=O)N1CCC[C@H]1C(=O)N[C@@H](CO)C(=O)N[C@@H](CO)C(=O)NCC(=O)N[C@@H](C)C(=O)N1CCC[C@H]1C(=O)N1CCC[C@H]1C(=O)N1CCC[C@H]1C(=O)N[C@@H](CO)C(N)=O)C(C)C)[C@@H](C)CC
B3: Compound 104 (peptide)
peptide: [NMeY][Aib]EGTFISDYSIALDRK([AEEA-AEEA-γGlu-C15 diacid])AQ[Aib]DFVNWLLAQRPSSGAPPPS-NH2
B4: Compound 99 (peptide)
peptide: [NMeY][Aib]EGTFISDYSIAK([GGEEE-C15 diacid])DR[Aib]AQ[Aib]NFVNWLLAQRPSSGAPPPS-NH2
B5: Compound 109 (peptide)
peptide: [NMeY][Aib]EGTFISDYSIALDR[Aib]AQ[Aib]DFVNWLLAK(2OEGgE‑C15DA)RPSSGAPPPS-NH2
B6: Compound 10 (peptide)
peptide: [NMeY][Aib]EGTFISDYSIALDRIHQ[Aib]NFVNWLLK(2OEGgE‑C16DA)QK
B7: Compound 100 (peptide)
peptide: [NMeY][Aib]EGTFISDYSI[Aib]LDR[Aib]AQ[Aib]DFVNWLLAQK(2OEGgE‑C15DA)PSSGAPPPS-NH2
B8: Compound 108 (peptide)
peptide: [NMeY][Aib]EGTFISDYSI[Aib]LDR[Aib]AQ[Aib]K(2OEGgEgE‑C15DA)FVNWLLAQR-NH2
modifications: N-terminus assumed
SMILES: CC[C@H](C)[C@H](NC(=O)[C@H](Cc1ccccc1)NC(=O)[C@@H](NC(=O)CNC(=O)[C@H](CCC(=O)O)NC(=O)C(C)(C)NC(=O)[C@H](Cc1ccc(O)cc1)NC)[C@@H](C)O)C(=O)N[C@@H](CO)C(=O)N[C@@H](CC(=O)O)C(=O)N[C@@H](Cc1ccc(O)cc1)C(=O)N[C@@H](CO)C(=O)N[C@H](C(=O)NC(C)(C)C(=O)N[C@@H](CC(C)C)C(=O)N[C@@H](CC(=O)O)C(=O)N[C@@H](CCCNC(=N)N)C(=O)NC(C)(C)C(=O)N[C@@H](C)C(=O)N[C@@H](CCC(N)=O)C(=O)NC(C)(C)C(=O)N[C@@H](CCCCNC(=O)COCCOCCNC(=O)COCCOCCNC(=O)CC[C@H](NC(=O)CC[C@H](NC(=O)CCCCCCCCCCCCCC(=O)O)C(=O)O)C(=O)O)C(=O)N[C@@H](Cc1ccccc1)C(=O)N[C@H](C(=O)N[C@@H](CC(N)=O)C(=O)N[C@@H](Cc1c[nH]c2ccccc12)C(=O)N[C@@H](CC(C)C)C(=O)N[C@@H](CC(C)C)C(=O)N[C@@H](C)C(=O)N[C@@H](CCC(N)=O)C(=O)N[C@@H](CCCNC(=N)N)C(N)=O)C(C)C)[C@@H](C)CC
B9: Compound 9 (peptide)
peptide: [NMeY][Aib]EGTFISDYSIALDRIHQ[Aib]K([AEEA-AEEA-γGlu-C16 diacid])FVNWLLAQK
B10: Compound 102 (peptide)
peptide: [NMeY][Aib]EGTFISDYSI[Aib]LDR[Aib]AQ[Aib]K(2OEGgE‑C15DA)FVNWLLAQSPSSGAPPPS-NH2
B11: Compound 98 (peptide)
peptide: [NMeY][Aib]EGTFISDYSIALDR[Aib]AQ[Aib]DFVNWLLAK([AEEA-AEEA-γGlu-C15 diacid])SPSSG-NH2
modifications: N-terminus assumed
SMILES: CC[C@H](C)[C@H](NC(=O)[C@H](CO)NC(=O)[C@H](Cc1ccc(O)cc1)NC(=O)[C@H](CC(=O)O)NC(=O)[C@H](CO)NC(=O)[C@@H](NC(=O)[C@H](Cc1ccccc1)NC(=O)[C@@H](NC(=O)CNC(=O)[C@H](CCC(=O)O)NC(=O)C(C)(C)NC(=O)[C@H](Cc1ccc(O)cc1)NC)[C@@H](C)O)[C@@H](C)CC)C(=O)N[C@@H](C)C(=O)N[C@@H](CC(C)C)C(=O)N[C@@H](CC(=O)O)C(=O)N[C@@H](CCCNC(=N)N)C(=O)NC(C)(C)C(=O)N[C@@H](C)C(=O)N[C@@H](CCC(N)=O)C(=O)NC(C)(C)C(=O)N[C@@H](CC(=O)O)C(=O)N[C@@H](Cc1ccccc1)C(=O)N[C@H](C(=O)N[C@@H](CC(N)=O)C(=O)N[C@@H](Cc1c[nH]c2ccccc12)C(=O)N[C@@H](CC(C)C)C(=O)N[C@@H](CC(C)C)C(=O)N[C@@H](C)C(=O)N[C@@H](CCCCNC(=O)COCCOCCNC(=O)COCCOCCNC(=O)CC[C@H](NC(=O)CCCCCCCCCCCCCC(=O)O)C(=O)O)C(=O)N[C@@H](CO)C(=O)N1CCC[C@H]1C(=O)N[C@@H](CO)C(=O)N[C@@H](CO)C(=O)NCC(N)=O)C(C)C
B12: Compound 105 (peptide)
peptide: [NMeY][Aib]EGTFISDYSIALDR[Aib]K(GGEEE‑C15DA)Q[Aib]NFVNWLLAQSPSSGAPPPS-NH2
B13: Compound 106 (peptide)
peptide: [NMeY][Aib]EGTFISDYSIALDR[Aib]KQ[Aib]DFVNWLLAQSPSSGAPPPS-NH2
modifications: not fully specified (residue 18, N-terminus)

Key:
[1] = target: T1, full-length human GIPR with an …; assay: cell-based or functional assay
[2] = target: full-length human GLP-1R with an N-terminal FLAG tag (human, UniProt P43220 24-463); assay: cell-based or functional assay

| Binder | Human GIPR cAMP, HEK293T EC50 [1] [pM] | Human GLP1R cAMP HEK293T EC50 [2] [nM] |
| --- | --- | --- |
| B1 | 0.2 | 550 |
| B2 | 0.5 | 148 |
| B3 | 0.4 | 1000 |
| B4 | 0.2 | 1000 |
| B5 | 0.5 | 832 |
| B6 | 0.6 | 955 |
| B7 | 0.7 | 1000 |
| B8 | 0.5 | 41.7 |
| B9 | 0.2 | 95.5 |
| B10 | 0.5 | 31.6 |
| B11 | 0.6 | 1000 |
| B12 | 0.3 | 1000 |
| B13 | 0.5 | 120 |
